Assay results: paper PMC6429962 (Cell reports, 2019)

Biological target: T1, myc-tagged xFZD8 CRD (cysteine-rich domain of Xenopus Frizzled-8) (Xenopus, UniProt O93274 24-144)
T1 sequence (looked up): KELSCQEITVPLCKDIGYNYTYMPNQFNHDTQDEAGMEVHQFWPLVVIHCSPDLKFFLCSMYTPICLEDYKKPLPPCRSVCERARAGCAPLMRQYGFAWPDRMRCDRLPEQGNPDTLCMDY
Assay: co-IP

B1: wild-type Xenopus Wnt8 (xWnt8^WT) (ligand, UniProt P28026 23-358, looked up)
chain: AWSVNNFLMTGPKAYLTYSASVAVGAQNGIEECKYQFAWERWNCPESTLQLATHNGLRSATRETSFVHAISSAGVMYTLTRNCSMGDFDNCGCDDSRNGRIGGRGWVWGGCSDNAEFGERISKLFVDGLETGQDARALMNLHNNEAGRLAVKETMKRTCKCHGISGSCSIQTCWLQLAEFRDIGNHLKIKHDQALKLEMDKRKMRSGNSADNRGAIADAFSSVAGSELIFLEDSPDYCLKNISLGLQGTEGRECLQSGKNLSQWERRSCKRLCTDCGLRVEEKKTEIISSCNCKFHWCCTVKCEQCKQVVIKHFCARRERDSNMLNTKRKNRGHRR
modifications: acylation site S187 (palmitoleoyl chain), as the paper says of the wild type
  fold more efficient co-immunoprecipitation than xWnt8^S187A: ~10 fold

B2: human Wnt3a lacking the acylation site (hWnt3a^S209A) (ligand, UniProt P56704 19-352, looked up)
chain: SYPIWWSLAVGPQYSSLGSQPILCASIPGLVPKQLRFCRNYVEIMPSVAEGIKIGIQECQHQFRGRRWNCTTVHDSLAIFGPVLDKATRESAFVHAIASAGVAFAVTRSCAEGTAAICGCSSRHQGSPGKGWKWGGCSEDIEFGGMVSREFADARENRPDARSAMNRHNNEAGRQAIASHMHLKCKCHGLAGSCEVKTCWWSQPDFRAIGDFLKDKYDSASEMVVEKHRESRGWVETLRPRYTYFKVPTERDLVYYEASPNFCEPNPETGSFGTRDRTCNVSSHGIDGCDLLCCGRGHNARAERRREKCRCVFHWCCYVSCQECTRVYDVHTCK
  fold reduction of apparent CRD binding strength against the wild type: ~10 fold
